Assay [1] has as its target cynomolgus monkey DLL4 extracellular domain (cynomolgus monkey). The assay can be described thus: Biacore SPR.
Assay [2] concerns the target cyno DLL4-his (cynomolgus monkey). The assay can be described thus: ELISA on DLL4-his.
Assay [3] shares this target. The assay can be described thus: ELISA on DLL4-his. The source holds these as a separate data set. (ELISA stands for enzyme-linked immunosorbent assay.)
The target in assay [4] is cynomolgus monkey DLL4 extracellular domain (cynomolgus monkey). The assay can be described thus: Biacore SPR. The source holds these as a separate data set. Background: In SPR one partner is held on a chip, and binding of the other changes the refractive index at the surface.
Assay [5] has the same target. The assay can be described thus: competition ELISA, competitor huNotch-1.
Assay [6] shares this target. The assay can be described thus: capture ELISA.

Like-named read-outs stand apart in the source and are kept apart here.

B1: E9-FR2 (antibody, V domains shown)
VH: EVTLRESGPALVKPTQTLTLTCTVSGGSISSSSYYWGWIRQPPGKGLEWIGDIYYTGSTYYNPSLKSRVTISVDTSKNQFVLTMTNMDPVDTATYYCAREDVILRGGSDYWGQGTTVTVSS
VL: DYVLTQSPDSLAVSLGERATINCSGQRLGDKYASWYQQKPGQSPKLVIYEDSKRPSGIPDRFSGSNSGDDATLTISSLQAEDVAVYYCQAWDRDTGVFGGGTKVEIKR
The molecule B1 came in with a Kd in assay [1] of 0.3 nM. In assay [2], this molecule returned an EC50 of 0.12 nM.

B2: E9.1 (antibody, human IgG1, V domains shown)
VH: EVQLQESGPGLVKPSETLSLTCTVSGGSISSSSYYWGWIRQPPGKGLEWIGDIYYTGSTYYNPSLKSRVTISVDTSKNQFSLKLSSVTAADTAVYYCAREDVILRGGSDYWGQGTLVTVSS
VL: SYELTQPPSVSVSPGQTASITCSGQRLGDKYASWYQQKPGQSPVLVIYEDSKRPSGIPERFSGSNSGDTATLTISGTQPMDEADYYCQAWDRDTGVFGYGTRVTVLG
For B2, the results for the EC50 in assay [3] and in assay [2] were 0.24 nM and 0.035 nM, respectively. Moreover, the Kd in assay [4] was determined as 4.08 nM; in assay [1] it was 0.47 nM.

B3: E9.71 (antibody, V domains shown)
VH: EVQLQESGPGLVKPSETLSLTCTVSGGSISSSSYYWGWIRQPPGKGLEWIGDIYYTGSTYYNPSLKSRVTISVDTSKNQFSLKLSSVTAADTAVYYCARQALAMGGGSDKWGQGTLVTVSS
VL: SYELTQPPSVSVSPGQTASITCSGQRLGDKYASWYQQKPGQSPVLVIYEDSKRPSGIPERFSGSNSGDTATLTISGTQPMDEADYYCQAWDRDTGVFGYGTKVTVL
As to B3, the IC50 in assay [5] stood at 2 nM. Further, in assay [4], the Kd amounted to 0.49 nM, the koff is 3.79e-05 s⁻¹ and the kon was 77500 M⁻¹ s⁻¹. In assay [6], this molecule showed an EC50 of 0.44 nM.

B4: E9.2B (antibody, V domains shown)
VH: EVQLQESGPGLVKPSETLSLTCTVSGGSISSSNYYWGWIRQPPGKGLEWIGDINYNGNTYYNPSLKSRVTISVDTSKNQFSLKLSSVTAADTAVYYCAREAVALGGGADDWGQGTLVTVSS
VL: SYELTQPPSVSVSPGQTASITCSGEGLGDKYVSWYQQKPGQSPVLVIYEDSTRPSGIPERFSGSNSGDTATLTISGTQPMDEADYYCQAWDSETGVFGSGTKVTVL
As for B4, the IC50 in assay [5] is 2.2 nM. For the same molecule, the EC50 in assay [6] turned out to be 0.45 nM.

B5: E9 (antibody, IgG1, V domains shown)
VH: EVQLQESGPGLVKPSETLSLTCTVSGGSISSSSYYWGWIRQPPGKGLEWIGDIYYTGSTYYNPSLKSRVTISVDTSKNQFSLKLSSVTAADTAVYYCAREDVILRGGSDYWGQGTLVTVSS
VL: SYELTQPPSVSVSPGQTASITCSGQRLGDKYASWYQQKPGQSPVLVIYEDSKRPSGIPERFSGSNSGDTATLTISGTQPMDEADYYCQAWDRDTGVFGYGTRVTVL
As to B5, the concentration for half-maximal inhibition (IC50) in assay [5] stood at 2.1 nM. In assay [4], this molecule displayed a Kd of 4.2 nM, a koff of 7.4e-05 s⁻¹ and a kon of 18000 M⁻¹ s⁻¹. The EC50 in assay [6] was 0.4 nM.

B6: E9.19 (antibody, V domains shown)
VH: EVQLQESGPGLVKPSETLSLTCTVSGGSISSSSYYWGWIRQPPGKGLEWIGDIYYTGSTYYNPSLKSRVTISVDTSKNQFSLKLSSVTAADTAVYYCARFDVSLGGGSDTWGQGTLVTVSS
VL: SYELTQPPSVSVSPGQTASITCSGQRLGDKYASWYQQKPGQSPVLVIYEDSKRPSGIPERFSGSNSGDTATLTISGTQPMDEADYYCQAWDRDTGVFGYGTKVTVL
Molecule B6 displayed an IC50 in assay [5] of 1.5 nM. For the same molecule, in assay [4], the Kd was found to be 0.25 nM, the koff came out at 4.86e-05 s⁻¹ and the kon was 192000 M⁻¹ s⁻¹. In assay [6], this molecule returned an EC50 of 0.46 nM.

B7: A10 (antibody, IgG1, V domains shown)
VH: EVQLLESGGGLVKSGGSLRLSCAASGFTFRSHWMSWVRQAPGKGLEWVAIISYDGSNKYSADSVKGRFTISRDNSKNTLYLQLNSLRAEDTAVYYCAKAGGGNVGFDIWGQGTMVTVSS
VL: LPVLTQPPSVSVSPGQTASITCSADKLGTKYVSWYQQKPGQSPVLVIYQDAKRPSGIPERFSGSNSGNTATLTISGTQTMDEADYLCQSWDRSDVVFGGGTKVTVL
For B7, the IC50 in assay [5] stood at 5.1 nM. In assay [4], this molecule returned a Kd of 7.8 nM, a koff of 0.00015 s⁻¹ and an on-rate (kon) of 19000 M⁻¹ s⁻¹. In assay [6], the EC50 was determined as 0.44 nM.

B8: E9-FR1 (antibody, V domains shown)
VH: EVQLVQSGTEVKKPGESLKISCKVSGGSISSSSYYWGWIRQMPGKGLEWIGDIYYTGSTYYNPSLKSQVTISVDTSFNTFFLQWSSLKASDTAMYYCAREDVILRGGSDYWGQGTMVTVSS
VL: EYVLTQSPATLSVSPGERATLSCSGQRLGDKYASWYQQKPGQSPRLVIYEDSKRPSDIPARFSGSNSGDEATLTISSLQSEDFAVYYCQAWDRDTGVFGQGTRLEIKR
Regarding B8, the Kd in assay [1] was determined as 0.74 nM. Also, the EC50 in assay [2] amounted to 0.12 nM.

As usually defined, the Kd is the concentration at which binding is half-saturated. One may read the EC50 as the concentration needed to bring the measured effect to its halfway point. As usually defined, the IC50 is the concentration that inhibits the measured activity by half. What is called koff is a measure of how fast the partners let go of each other. In general, kon refers to the second-order rate constant of association.

For the origin of these results see patent US20200255508A1.
